In publication PMC8705818, “Experimental Characterization of the Interaction between the N-Terminal SH3 Domain of Crkl and C3G” (International Journal of Molecular Sciences, 2021):
Ends that are not written are not given here. * marks the point of attachment. Dansyl = CN(C)c1cccc2c(S(=O)(=O)*)cccc12

Tests used:
[1] = target: dansyl-C3G277-296 peptide (UniProt Q13905); assay: Stopped-flow fluorescence kinetics (FRET Trp to dansyl). kon from binding, koff from displacement, KD = koff/kon.; details: pH 7.0, 10 °C, Hepes 50 mM pH 7.0
[2] = target: dansyl-C3G277-296 peptide (UniProt Q13905); assay: Stopped-flow fluorescence kinetics (FRET from Trp164/Trp165 to dansyl; excitation 280 nm, 455 nm cut-off filter). kon from binding experiments, koff from separate displacement experiments, KD = koff/k; details: 10 °C, 0.5 M NaCl added to all buffers, 50 mM sodium acetate at pH 5.0 and 5.5, 50 mM Bis-Tris at pH 6.0 and 6.5, 50 mM Hepes at pH 7.0 and 7.5, 50 mM Tris-HCl
[3] = target: dansylated C3G_(277–296) peptide; assay: stopped-flow kinetics (FRET, Trp to dansyl); variants, ionic strength series: 0.5 µM dansyl peptide mixed with 2.0-4.5 µM N-SH3 variant; KD = koff/kon; 50 mM Hepes pH 7.5, 0 M NaCl, 10 °C
[4] = target: dansylated C3G_(277–296) peptide; assay: stopped-flow kinetics (FRET, Trp to dansyl); variants, ionic strength series: 0.5 µM dansyl peptide mixed with N-SH3 variant (D138A 2.5-6.0 µM, E140A 3.0-5.5 µM); KD = koff/kon; 50 mM Hepes pH 7.5, 0.15 M NaCl, 10 °C
[5] = target: dansylated C3G_(277–296) peptide; assay: stopped-flow kinetics (FRET, Trp to dansyl); variants, ionic strength series: 0.5 µM dansyl peptide mixed with N-SH3 variant (D138A 2.5-6.0 µM, E140A 3.0-5.0 µM); KD = koff/kon; 50 mM Hepes pH 7.5, 0.1 M NaCl, 10 °C
[6] = target: dansylated C3G_(277–296) peptide; assay: stopped-flow kinetics (FRET, Trp to dansyl); variants, ionic strength series: 0.5 µM dansyl peptide mixed with N-SH3 variant (D138A 2.5-6.0 µM, E140A 3.0-5.5 µM); KD = koff/kon; 50 mM Hepes pH 7.5, 0.05 M NaCl, 10 °C
[7] = target: dansylated C3G_(277–296) peptide; assay: stopped-flow displacement kinetics; preincubated complex of D141A N-SH3 (2 µM) and dansyl-C3G (10 µM) mixed with excess nondansylated C3G (50 µM); Hepes 50 mM pH 7.0 with 20% w/v sucrose
[8] = target: dansylated C3G_(277–296) peptide; assay: stopped-flow kinetics (FRET, Trp to dansyl); pH series: 0.5 µM dansyl peptide mixed with 0.5-5.0 µM N-SH3; koff from displacement; Bis-Tris 50 mM pH 6.5, 0.5 M NaCl, 10 °C
[9] = target: dansylated C3G_(277–296) peptide; assay: stopped-flow kinetics (FRET, Trp to dansyl); pH series: 0.5 µM dansyl peptide mixed with 2.0-7.0 µM N-SH3; koff from displacement; 50 mM sodium acetate pH 5.5, 0.5 M NaCl, 10 °C
[10] = target: dansylated C3G_(277–296) peptide; assay: stopped-flow kinetics (FRET, Trp to dansyl); pH series: 0.5 µM dansyl peptide mixed with 0.5-5.0 µM N-SH3; koff from displacement; Hepes 50 mM pH 7.5, 0.5 M NaCl, 10 °C
[11] = target: dansylated C3G_(277–296) peptide; assay: stopped-flow kinetics (FRET, Trp to dansyl); pH series: 0.5 µM dansyl peptide mixed with 1.5-6.0 µM N-SH3; koff from displacement; Tris-HCl 50 mM pH 9.0, 0.5 M NaCl, 10 °C
[12] = target: dansylated C3G_(277–296) peptide; assay: stopped-flow kinetics (FRET, Trp to dansyl); ionic strength series: 0.5 µM dansyl peptide mixed with 0.5-5 µM N-SH3; koff from displacement; KD = koff/kon; Hepes 50 mM pH 7.0, 1 M NaCl, 10 °C
[13] = target: dansylated C3G_(277–296) peptide; assay: stopped-flow kinetics (FRET, Trp to dansyl); pH series: 0.5 µM dansyl peptide mixed with 1.5-6.0 µM N-SH3; koff from displacement; Hepes 50 mM pH 7.0, 0.5 M NaCl, 10 °C
[14] = target: dansylated C3G_(277–296) peptide; assay: stopped-flow kinetics (FRET, Trp to dansyl); pH series: 0.5 µM dansyl peptide mixed with 1.5-6.0 µM N-SH3; koff from displacement; Tris-HCl 50 mM pH 8.5, 0.5 M NaCl, 10 °C
[15] = target: dansylated C3G_(277–296) peptide; assay: stopped-flow kinetics (FRET, Trp to dansyl); ionic strength series: 0.5 µM dansyl peptide mixed with 1-5 µM N-SH3; koff from displacement with excess nondansylated peptide; KD = koff/kon; Hepes 50 mM pH 7.0, 0 M NaCl, 10 °C
[16] = target: dansylated C3G_(277–296) peptide; assay: stopped-flow kinetics (FRET, Trp to dansyl); ionic strength series: 0.5 µM dansyl peptide mixed with 0.5-5 µM N-SH3; koff from displacement; KD = koff/kon; Hepes 50 mM pH 7.0, 0.15 M NaCl, 10 °C
[17] = target: dansylated C3G_(277–296) peptide; assay: stopped-flow kinetics (FRET, Trp to dansyl); pH series: 0.5 µM dansyl peptide mixed with 1.5-6.0 µM N-SH3; koff from displacement; Tris-HCl 50 mM pH 8.0, 0.5 M NaCl, 10 °C
[18] = target: dansylated C3G_(277–296) peptide; assay: stopped-flow kinetics (FRET, Trp to dansyl); pH series: 0.5 µM dansyl peptide mixed with 4.0-8.0 µM N-SH3; koff from displacement; 50 mM sodium acetate pH 5.0, 0.5 M NaCl, 10 °C
[19] = target: dansylated C3G_(277–296) peptide; assay: stopped-flow kinetics (FRET, Trp to dansyl); pH series: 0.5 µM dansyl peptide mixed with 1.0-5.0 µM N-SH3; koff from displacement; Bis-Tris 50 mM pH 6.0, 0.5 M NaCl, 10 °C
[20] = target: dansylated C3G_(277–296) peptide; assay: stopped-flow kinetics (FRET, Trp to dansyl); ionic strength series: 0.5 µM dansyl peptide mixed with 0.5-5 µM N-SH3; koff from displacement; KD = koff/kon; Hepes 50 mM pH 7.0, 0.3 M NaCl, 10 °C
[21] = target: dansylated C3G_(277–296) peptide; assay: stopped-flow kinetics (FRET, Trp to dansyl); ionic strength series: 0.5 µM dansyl peptide mixed with 0.5-5 µM N-SH3; koff from displacement; KD = koff/kon; Hepes 50 mM pH 7.0, 0.5 M NaCl, 10 °C
[22] = target: N-SH3 domain of Crkl, D141A variant; assay: other fluorescence titration; equilibrium: 1 µM N-SH3 D141A constant, increasing dansyl-C3G; quenching of Trp fluorescence at 350 nm (excitation 280 nm); hyperbolic fit; 50 mM Hepes pH 7.0, 10 °C

Molecule: Crkl N-terminal SH3 domain (N-SH3), wild type
- koff ([1]; 0 M NaCl added): 12 s⁻¹
- kon ([1]; 0 M NaCl added): 1.3e+08 M⁻¹ s⁻¹
- koff ([1]; 0.15 M NaCl): 23 s⁻¹
- kon ([1]; 0.15 M NaCl): 9.6e+07 M⁻¹ s⁻¹
- koff ([1]; 0.3 M NaCl): 32 s⁻¹
- kon ([1]; 0.3 M NaCl): 8.3e+07 M⁻¹ s⁻¹
- koff ([1]; 0.5 M NaCl): 34 s⁻¹
- kon ([1]; 0.5 M NaCl): 5.1e+07 M⁻¹ s⁻¹
- koff ([1]; 1.0 M NaCl): 51 s⁻¹
- kon ([1]; 1.0 M NaCl): 6.8e+07 M⁻¹ s⁻¹
- koff ([2]; pH 5.0): 257 s⁻¹
- kon ([2]; pH 5.0): 4.4e+07 M⁻¹ s⁻¹
- koff ([2]; pH 5.5): 81 s⁻¹
- kon ([2]; pH 5.5): 3.7e+07 M⁻¹ s⁻¹
- koff ([2]; pH 6.0): 78 s⁻¹
- kon ([2]; pH 6.0): 1.5e+07 M⁻¹ s⁻¹
- koff ([2]; pH 6.5): 65 s⁻¹
- kon ([2]; pH 6.5): 6.5e+07 M⁻¹ s⁻¹
- koff ([2]; pH 7.0): 42 s⁻¹
- kon ([2]; pH 7.0): 5.2e+07 M⁻¹ s⁻¹
- koff ([2]; pH 7.5): 34 s⁻¹
- kon ([2]; pH 7.5): 5.1e+07 M⁻¹ s⁻¹
- koff ([2]; pH 8.0): 46 s⁻¹
- kon ([2]; pH 8.0): 5.6e+07 M⁻¹ s⁻¹
- koff ([2]; pH 8.5): 40 s⁻¹
- kon ([2]; pH 8.5): 6.8e+07 M⁻¹ s⁻¹
- koff ([2]; pH 9.0): 39 s⁻¹
- kon ([2]; pH 9.0): 3.9e+07 M⁻¹ s⁻¹

Molecule: N-SH3 domain of Crkl, D138A variant (domain or fragment)
- Kd [3]: 0.9 µM
- koff [3]: 139 s⁻¹
- kon [3]: 1.58e+08 M⁻¹ s⁻¹
- Kd [4]: 22 µM
- koff [4]: 254 s⁻¹
- kon [4]: 1.2e+07 M⁻¹ s⁻¹
- Kd [5]: 3.8 µM
- koff [5]: 183 s⁻¹
- kon [5]: 4.8e+07 M⁻¹ s⁻¹
- Kd [6]: 2.6 µM
- koff [6]: 212 s⁻¹
- kon [6]: 8.1e+07 M⁻¹ s⁻¹

Molecule: N-SH3 domain of Crkl, D141A variant (domain or fragment)
- koff [7]: 800 s⁻¹

Molecule: N-SH3 domain of Crkl, E140A variant (domain or fragment)
- Kd [3]: 3.3 µM
- koff [3]: 254 s⁻¹
- kon [3]: 7.8e+07 M⁻¹ s⁻¹
- Kd [4]: 4.2 µM
- koff [4]: 339 s⁻¹
- kon [4]: 8.1e+07 M⁻¹ s⁻¹
- Kd [5]: 3.9 µM
- koff [5]: 302 s⁻¹
- kon [5]: 7.7e+07 M⁻¹ s⁻¹
- Kd [6]: 3.7 µM
- koff [6]: 330 s⁻¹
- kon [6]: 8.9e+07 M⁻¹ s⁻¹

Molecule: N-terminal SH3 domain of Crkl, wild type (domain or fragment)
- Kd [8]: 1 µM
- koff [8]: 65 s⁻¹
- kon [8]: 6.5e+07 M⁻¹ s⁻¹
- Kd [9]: 2.2 µM
- koff [9]: 81 s⁻¹
- kon [9]: 3.7e+07 M⁻¹ s⁻¹
- Kd [10]: 0.7 µM
- koff [10]: 34 s⁻¹
- kon [10]: 5.1e+07 M⁻¹ s⁻¹
- Kd [11]: 1 µM
- koff [11]: 39 s⁻¹
- kon [11]: 3.9e+07 M⁻¹ s⁻¹
- Kd [12]: 0.75 µM
- koff [12]: 51 s⁻¹
- kon [12]: 6.8e+07 M⁻¹ s⁻¹
- Kd [13]: 0.8 µM
- koff [13]: 42 s⁻¹
- kon [13]: 5.2e+07 M⁻¹ s⁻¹
- Kd [14]: 0.6 µM
- koff [14]: 40 s⁻¹
- kon [14]: 6.8e+07 M⁻¹ s⁻¹
- Kd [15]: 0.09 µM
- koff [15]: 12 s⁻¹
- kon [15]: 1.3e+08 M⁻¹ s⁻¹
- Kd [16]: 0.24 µM
- koff [16]: 23 s⁻¹
- kon [16]: 9.6e+07 M⁻¹ s⁻¹
- Kd [17]: 0.8 µM
- koff [17]: 46 s⁻¹
- kon [17]: 5.6e+07 M⁻¹ s⁻¹
- Kd [18]: 5.9 µM
- koff [18]: 257 s⁻¹
- kon [18]: 4.4e+07 M⁻¹ s⁻¹
- Kd [19]: 5.4 µM
- koff [19]: 78 s⁻¹
- kon [19]: 1.5e+07 M⁻¹ s⁻¹
- Kd [20]: 0.39 µM
- koff [20]: 32 s⁻¹
- kon [20]: 8.3e+07 M⁻¹ s⁻¹
- Kd [21]: 0.66 µM
- koff [21]: 34 s⁻¹
- kon [21]: 5.1e+07 M⁻¹ s⁻¹

Molecule: Dansyl-VVDNSPPPALPPKKRQSAPS [dansylated C3G_(277–296) peptide]
- Kd [22]: 1.07 µM
